# Assay results: patent publication US20140335077A1, “Compositions and Methods for the Treatment of Cancer Using IGF-IR Antagonists and MAPK/ERK Inhibitors” (priority 2013, published 2014)
# B1: CP-751,871: anti-IGF-1R antibody figitumumab (Pfizer), IGF-1R antagonist (antibody, chains of the INN, looked up)
# heavy: EVQLLESGGGLVQPGGSLRLSCTASGFTFSSYAMNWVRQAPGKGLEWVSAISGSGGTTFYADSVKGRFTISRDNSRTTLYLQMNSLRAEDTAVYYCAKDLGWSDSYYYYYGMDVWGQGTTVTVSSASTKGPSVFPLAPCSRSTSESTAALGCLVKDYFPEPVTVSWNSGALTSGVHTFPAVLQSSGLYSLSSVVTVPSSNFGTQTYTCNVDHKPSNTKVDKTVERKCCVECPPCPAPPVAGPSVFLFPPKPKDTLMISRTPEVTCVVVDVSHEDPEVQFNWYVDGVEVHNAKTKPREEQFNSTFRVVSVLTVVHQDWLNGKEYKCKVSNKGLPAPIEKTISKTKGQPREPQVYTLPPSREEMTKNQVSLTCLVKGFYPSDIAVEWESNGQPENNYKTTPPMLDSDGSFFLYSKLTVDKSRWQQGNVFSCSVMHEALHNHYTQKSLSLSPG
# light: DIQMTQFPSSLSASVGDRVTITCRASQGIRNDLGWYQQKPGKAPKRLIYAASRLHRGVPSRFSGSGSGTEFTLTISSLQPEDFATYYCLQHNSYPCSFGQGTKLEIKRTVAAPSVFIFPPSDEQLKSGTASVVCLLNNFYPREAKVQWKVDNALQSGNSQESVTEQDSKDSTYSLSSTLTLSKADYEKHKVYACEVTHQGLSSPVTKSFNRGEC
# Key:
# Format in all cases: cell-based
# DFB = experiment: PrestoBlue cell viability, anti-IGF-1R antibody with U0126, DFB (melanoma); conditions: 48 h
# Protocol: (§1) Cells were incubated in 96 well tissue culture plates and cell viability was measured by PrestoBlue cell viability assay (Invitrogen, CA, USA) according to manufacturer's instructions. Fluorescence was measured with excitation at 560 nm and emission at 590 nm. Cell number was calculated from standard curves of fluorescence measurements from known numbers of cells. Triplicate cultures were performed on all experiments.
# (§2) The effects of anti-IGF-1R antibodies/MEK inhibitor combination treatment on viability of different types of tumor cells were investigated using PrestoBlue cell viability assay (Invitrogen, CA, USA) according to manufacturer's instructions. (Table 3).
# (§3) Cells were incubated in serum free medium for 12 h followed by pretreatment for 60 min without or with 0.5, 1, 3 or 5 μM of the ERK inhibitor U0126, and then treated without or with 100 ng/ml anti-IGF-1R antibodies (Figitumumab or αIR-3 (Calbiochem, US). Cells were incubated in 96 well tissue culture plates for 48 hours and cell viability was measured by PrestoBlue cell viability assay. Fluorescence was measured with excitation at 560 nm and emission at 590 nm. Cell number was calculated from standard curves of fluorescence measurements from known numbers of cells. Triplicate cultures were performed on all experiments. The inhibition induced by anti-IGF-1R antibodies treated cells was calculated as percentage of untreated cells.
# SKMel5 = experiment: PrestoBlue cell viability, anti-IGF-1R antibody with U0126, SKMel5 (melanoma); conditions: 48 h
# Protocol: as §1, §2, §3
# MCF7 = experiment: PrestoBlue cell viability, anti-IGF-1R antibody with U0126, MCF7 (breast carcinoma); conditions: 48 h
# Protocol: as §1, §2, §3
# ZR75-1 = experiment: PrestoBlue cell viability, anti-IGF-1R antibody with U0126, ZR75-1 (breast carcinoma); conditions: ZR75-1 cells, 48 h
# Protocol: as §1, §2, §3
# MDA-MB-231 = experiment: PrestoBlue cell viability, anti-IGF-1R antibody with U0126, MDA-MB-231 (breast carcinoma); conditions: MDA-MB-231 cells, 48 h
# Protocol: as §1, §2, §3
# OMM 2.5 = experiment: PrestoBlue cell viability, anti-IGF-1R antibody with U0126, OMM 2.5 (liver metastasis of uveal melanoma); conditions: OMM 2.5 cells, 48 h
# Protocol: as §1, §2, §3
# PC-3 = experiment: PrestoBlue cell viability, anti-IGF-1R antibody with U0126, PC-3 (prostate carcinoma); conditions: PC-3 cells, 48 h
# Protocol: as §1, §2, §3
# DU-145 = experiment: PrestoBlue cell viability, anti-IGF-1R antibody with U0126, DU-145 (prostate carcinoma); conditions: DU-145 cells, 48 h
# Protocol: as §1, §2, §3
# H1703 = experiment: PrestoBlue cell viability, anti-IGF-1R antibody with U0126, H1703 (lung cancer); conditions: 48 h
# Protocol: as §1, §2, §3
# MIAPaCa2 = experiment: PrestoBlue cell viability, anti-IGF-1R antibody with U0126, MIAPaCa2 (pancreatic cancer); conditions: 48 h
# Protocol: as §1, §2, §3
# SK-OV-3 = experiment: PrestoBlue cell viability, anti-IGF-1R antibody with U0126, SK-OV-3 (ovarian carcinoma); conditions: SK-OV-3 cells, 48 h
# Protocol: as §1, §2, §3
# IGF-1R = molecular target: T1, IGF-1R (Homo sapiens, UniProt P08069); experiment: IGF-1R downregulation in ES cell lines (western blot)
# T1 construct: all the ES cell lines tested expressed IGF-1R; endogenous in cells; host or cells: Ewing's sarcoma cell lines SKES, RDES, CADO, A673, SKNMC
# Protocol: FIG. 2A-FIG. 2D. […] (A) Cells incubated in serum free medium for 12 h were treated with 0, 0.1 or 1 μg/ml CP for 24 h. Protein lysates were analyzed by WB for IGF-1R and GAPDH as a loading control. […] Protein lysates were analyzed by WB for IGF-1R and GAPDH as a loading control. Signals were quantified by densitometry, normalized to GAPDH and expressed as a percentage of the IGF-1R at 0 h. Data correspond to the mean±SEM from three independent experiments. […] IGF-1R was immunoprecipitated from lysates and analyzed by WB (IB) for ubiquitination (Ub) and IGF-1R as a loading control. Molecular weight markers in KDa are indicated to the left of the panels. (D) β-Arrestin1 (β-arr1) was immunoprecipitated from cell lysates prepared as for (C). Immunoprecipitated proteins were analyzed by WB for IGF-1R. The whole lysates were analyzed by WB for GAPDH as a loading control.
# Appropriate primary antibody was incubated overnight at 4° C.
# Given that β-arrestin1 (β-arr1) is a key protein involved in IGF-1R ubiquitination, we also investigated ligand induced IGF-1R/β-arr1 association.
# [1] = tested on: IGF-1R, AKT and ERK phosphorylation; experiment: IGF-1R signaling activation in ES cell lines (WB for P-IGF-1R, P-AKT, P-ERK)
# [2] = U0126 0 μM (60 min pretreatment)
# [3] = U0126 0.5 μM (60 min pretreatment)
# [4] = U0126 1 μM (60 min pretreatment)
# [5] = U0126 3 μM (60 min pretreatment)
# [6] = U0126 5 μM (60 min pretreatment)
# [7] = serum starved ES cells, stimulation up to 60 min
molecule,measurement,setting,value
B1,Percentage inhibition of antibody treated cells (100 ng/ml),DFB; [2],15%
same,Percentage inhibition of antibody treated cells (100 ng/ml),DFB; [3],17%
same,Percentage inhibition of antibody treated cells (100 ng/ml),DFB; [4],24%
same,Percentage inhibition of antibody treated cells (100 ng/ml),DFB; [5],45%
same,Percentage inhibition of antibody treated cells (100 ng/ml),DFB; [6],55%
same,Percentage inhibition of antibody treated cells (100 ng/ml),SKMel5; [2],22%
same,Percentage inhibition of antibody treated cells (100 ng/ml),SKMel5; [3],30%
same,Percentage inhibition of antibody treated cells (100 ng/ml),SKMel5; [4],35%
same,Percentage inhibition of antibody treated cells (100 ng/ml),SKMel5; [5],39%
same,Percentage inhibition of antibody treated cells (100 ng/ml),SKMel5; [6],42%
same,Percentage inhibition of antibody treated cells (100 ng/ml),MCF7; [2],15%
same,Percentage inhibition of antibody treated cells (100 ng/ml),MCF7; [3],18%
same,Percentage inhibition of antibody treated cells (100 ng/ml),MCF7; [4],25%
same,Percentage inhibition of antibody treated cells (100 ng/ml),MCF7; [5],18%
same,Percentage inhibition of antibody treated cells (100 ng/ml),MCF7; [6],33%
same,Percentage inhibition of antibody treated cells (100 ng/ml),ZR75-1; [2],5%
same,Percentage inhibition of antibody treated cells (100 ng/ml),ZR75-1; [3],9%
same,Percentage inhibition of antibody treated cells (100 ng/ml),ZR75-1; [4],12%
same,Percentage inhibition of antibody treated cells (100 ng/ml),ZR75-1; [5],12%
same,Percentage inhibition of antibody treated cells (100 ng/ml),ZR75-1; [6],15%
same,Percentage inhibition of antibody treated cells (100 ng/ml),MDA-MB-231; [2],8%
same,Percentage inhibition of antibody treated cells (100 ng/ml),MDA-MB-231; [3],12%
same,Percentage inhibition of antibody treated cells (100 ng/ml),MDA-MB-231; [4],15%
same,Percentage inhibition of antibody treated cells (100 ng/ml),MDA-MB-231; [5],22%
same,Percentage inhibition of antibody treated cells (100 ng/ml),MDA-MB-231; [6],32%
same,Percentage inhibition of antibody treated cells (100 ng/ml),OMM 2.5; [2],7%
same,Percentage inhibition of antibody treated cells (100 ng/ml),OMM 2.5; [3],33%
same,Percentage inhibition of antibody treated cells (100 ng/ml),OMM 2.5; [4],65%
same,Percentage inhibition of antibody treated cells (100 ng/ml),OMM 2.5; [5],87%
same,Percentage inhibition of antibody treated cells (100 ng/ml),OMM 2.5; [6],89%
same,Percentage inhibition of antibody treated cells (100 ng/ml),PC-3; [2],22%
same,Percentage inhibition of antibody treated cells (100 ng/ml),PC-3; [3],24%
same,Percentage inhibition of antibody treated cells (100 ng/ml),PC-3; [4],32%
same,Percentage inhibition of antibody treated cells (100 ng/ml),PC-3; [5],45%
same,Percentage inhibition of antibody treated cells (100 ng/ml),PC-3; [6],52%
same,Percentage inhibition of antibody treated cells (100 ng/ml),DU-145; [2],18%
same,Percentage inhibition of antibody treated cells (100 ng/ml),DU-145; [3],22%
same,Percentage inhibition of antibody treated cells (100 ng/ml),DU-145; [4],34%
same,Percentage inhibition of antibody treated cells (100 ng/ml),DU-145; [5],54%
same,Percentage inhibition of antibody treated cells (100 ng/ml),DU-145; [6],77%
same,Percentage inhibition of antibody treated cells (100 ng/ml),H1703; [2],10%
same,Percentage inhibition of antibody treated cells (100 ng/ml),H1703; [3],15%
same,Percentage inhibition of antibody treated cells (100 ng/ml),H1703; [4],25%
same,Percentage inhibition of antibody treated cells (100 ng/ml),H1703; [5],28%
same,Percentage inhibition of antibody treated cells (100 ng/ml),H1703; [6],32%
same,Percentage inhibition of antibody treated cells (100 ng/ml),MIAPaCa2; [2],27%
same,Percentage inhibition of antibody treated cells (100 ng/ml),MIAPaCa2; [3],35%
same,Percentage inhibition of antibody treated cells (100 ng/ml),MIAPaCa2; [4],55%
same,Percentage inhibition of antibody treated cells (100 ng/ml),MIAPaCa2; [5],78%
same,Percentage inhibition of antibody treated cells (100 ng/ml),MIAPaCa2; [6],89%
same,Percentage inhibition of antibody treated cells (100 ng/ml),SK-OV-3; [2],17%
same,Percentage inhibition of antibody treated cells (100 ng/ml),SK-OV-3; [3],25%
same,Percentage inhibition of antibody treated cells (100 ng/ml),SK-OV-3; [4],35%
same,Percentage inhibition of antibody treated cells (100 ng/ml),SK-OV-3; [5],55%
same,Percentage inhibition of antibody treated cells (100 ng/ml),SK-OV-3; [6],67%
same,IGF-1R downregulation,"IGF-1R; 100 ng/ml or 1 μg/ml, 24 h, serum starved, all ES cell lines",downregulate IGF-1R in a dose dependent manner
same,Rate of receptor degradation,"IGF-1R; A673 cells, time-response",very fast
same,Receptor degradation compared with IGF-1 (time-response),"IGF-1R; SKES, RDES, CADO and SKNMC, molar concentration approximately 10 fold less than IGF-1",more efficient at inducing receptor degradation
same,AKT phosphorylation,[1]; [7],undetectable
same,IGF-1R phosphorylation,[1]; [7],undetectable
same,ERK phosphorylation,"[1]; serum starved cells, up to 60 min, all ES cell lines",clear ERK phosphorylation signals
